Holding throughout (assay): AlphaScreen or HTRF
On the technique in general: Bead proximity is the source of the signal in Alpha formats.

The target of test [1] is His-tagged HCMV UL50 (residues 1-169) C35N (human cytomegalovirus (HCMV)) (UniProt P16791).
Test [2] addresses His-tagged HCMV UL50 (residues 1-169) C54S (human cytomegalovirus (HCMV)) (UniProt P16791).
For test [3], the target named is His-tagged HCMV UL50 (residues 1-169) C79S (human cytomegalovirus (HCMV)) (UniProt P16791).
Test [4] deals with T1, Myc-tagged HCMV UL53 (residues 50-292) with glycine-serine linker (human cytomegalovirus (HCMV), UniProt P16794 50-292).
T1 construct: source: E. coli BL21 (DE3) RIPL, purified (glutathione-agarose, on-column PreScission digestion, size exclusion chromatography); not shown: GST, N-terminal, cleaved; Myc, N-terminal, kept
T1 sequence: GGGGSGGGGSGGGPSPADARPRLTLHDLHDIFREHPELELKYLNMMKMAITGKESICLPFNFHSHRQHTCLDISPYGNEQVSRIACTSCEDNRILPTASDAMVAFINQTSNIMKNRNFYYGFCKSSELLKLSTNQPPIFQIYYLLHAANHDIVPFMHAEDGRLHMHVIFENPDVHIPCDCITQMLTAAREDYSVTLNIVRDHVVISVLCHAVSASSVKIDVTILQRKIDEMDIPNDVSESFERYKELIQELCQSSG
The conditions noted are these: both partners purified.

Consider “Myc-tagged HCMV UL53 (residues 50-292) with glycine-serine linker (from UniProt P16794 50-292) (domain or fragment)”, for which the Kd in test [1] is 150 nM; in test [2] it was 240 nM; in test [3] it was 340 nM.

B1: His-tagged HCMV UL50 (residues 1-169) (domain or fragment)
chain: MEMNKVLHQDLVQATRRILKLGPSELRVTDAGLICKNPNYSVCDAMLKTDTVYCVEYLLSYWESRTDHVPCFIFKNTGCAVSLCCFVRAPVKLVSPARHVGEFNVLKVNESLIVTLKDIEEIKPSAYGVLTKCVVRKSNSASVFNIELIAFGPENEGEYENLLRELYAK
notes: also called His-UL50; source: E. coli BL21 (DE3) RIPL, purified (nickel Sepharose, size exclusion chromatography); not shown: His, N-terminal, kept
In turn, B1 gave a Kd in test [4] of 300 nM.

In general, Kd refers to the equilibrium constant for the complex coming apart. Higher therefore signals lower affinity.

(Values after publication PMC10691697, “A small molecule exerts selective antiviral activity by targeting the human cytomegalovirus nuclear egress complex” (PLOS Pathogens, 2023).)
